This is an account of results in US11549115B2, “Compositions and methods for regulated gene expression” (YALE UNIVERSITY, priority 2017, dated 2023).

One data set relates to B. thetaiotaomicron. Kind of data set: Polymyxin B susceptibility (MIC, E-test strips). In kind it is cell-based, Bacteroides thetaiotaomicron. As to conditions: no TetR. The method, then:
Minimum inhibitory concentrations (MICs) were determined on solid medium using E-test strips (Biomerieux) as previously described (Cullen, T. W. et al., 2015, Science, 347:170-175), except that cultures were initially grown for 18 hours in liquid medium. Cultures were adjusted to OD600˜1.0 and 100 μL of cell suspension was then spread onto BHI-blood agar plates. Surface liquid was allowed to dry in a fume hood for 10 minutes, followed by application of the E-test strip to the agar surface.

Data set [1] deals with NanoLuc luciferase reporter in B. thetaiotaomicron. Kind of data set: NanoLuc luciferase assay from in vitro samples (promoter activity). It counts as cell-based, Bacteroides thetaiotaomicron. The method, then:
The NanoLuc luciferase assay was performed as described (Mimee, M. et al., 2015, Cell Syst., 1:62-71), with the following modifications. All strains were first grown for 18 hours in TYG medium or Gut Microbiota Medium and diluted 250-fold into fresh medium in appropriate conditions (with or without aTC). Cultures were grown to mid exponential phase (OD600 0.3-0.4) and colony forming units (CFU) were measured by dilution plating. 500 μL of the culture was centrifuged at 21,130×g for 3 minutes, resuspended in 50 μL 1× BugBuster (Novagen) in 1×PBS and lysed by one cycle of freeze-thaw and nutation at 26° C. for 10 minutes. Lysates were cleared of cellular debris by centrifugation at 21,130×g for 10 minutes at 4° C. 10 μL of the supernatant was mixed with an equal volume of NanoLuc Reaction Buffer using the Nano-Glo Luciferase Assay System (Promega) and incubated for 5 minutes at 26° C. to induce luminescence production. Relative Light Units (RLU) were measured using a fluorescence plate reader (BioTek Synergy H1) with an integration time of 1 second at a gain setting of 100. Luminescence values were normalized to colony forming units (CFUs) because experimental conditions (e.g., growth medium, antibiotics, aTC, heterologous gene expression) affect the correlation between CFUs and OD600 in Bacteroides.

B1: P1TP: Synthetic aTC-inducible promoter (proximal tetO2) + RBS GH023 (nucleic acid)
DNA: TTTTGCACCCGCTTTCCAAGAGAAGAAAGCCTTGTTAAATTGACTTAGTGTAAAAGCGCAGTACTGCTTGACCATAAGAACAAAAAAACTTCCGATAAAGTTTGGAAGATAAAGCTAAAAGTTCTTATCTTTGCAGTCTCCCTATCAGTGATAGAGACGAAATAAAGACATATAAAAGAAAAGACACCATG
modifications: P1TPSynthetic aTC-inducible promoter (proximal tetO2)+RBS GH023
For B1, the “PMB resistance of B. thetaiotaomicron lpxF mutant expressing lpxF from the promoter” value (shortened to “PMB resistance”) with B. thetaiotaomicron is listed as “increases PMB resistance to wildtype levels”.

B2: P2: Constitutive promoter of Bacteroides 16S rDNA (nucleic acid)
DNA: AAGAAAAGGCGTTTTGTTTTTCTTCTTTACCTTCTTTCCCTTTCGCTAAGAGAGTCTGAGAAACGATAGAAAAAGAAAAGCGAAAAAACTTCCGAAAACATTTGGTAGTTAAAATAAAACCTCTTACCTTTGCACCC
modifications: P2 Constitutive promoter (last nucleotide is +1 TSS)
notes: Constitutive promoter of Bacteroides 16S rDNA
As to B2, in the data set with B. thetaiotaomicron, the “PMB resistance” value is listed as “increases PMB resistance to wildtype levels”.

B3: P1TDP^B40: Synthetic aTC-inducible promoter (distal and proximal tetO2) + RBS B40 (nucleic acid)
DNA: TTTGCACCCGCTTTCCAAGAGAAGAAAGCCTTGTTAAATTGACTTAGTGTAAAAGCGCAGTACTGCTTGACCATAAGAACAAAAAAATCTCTATCACTGATAGGGATAAAGTTTGGAAGATAAAGCTAAAAGTTCTTATCTTTGCAGTCTCCCTATCAGTGATAGAGACGCATTTTAAAATAAAATAAATCATGTAGTTAATTAAACGAATCCATG
modifications: P1TDP-B40 Synthetic aTC-inducible promoter (distal and promixal tetO2)+RBS B40
In the case of B3, in data set [1] (Bt::tetR), the “increase of dynamic response to aTC over P1TDP^GH023” value was determined as 3.3 fold. Besides, in data set [1] (Bt::tetR (TetR present), no aTC), the “reporter expression relative to background in uninduced state” value is on record as 1.4 fold. In data set [1] (Bt::tetR, aTC 100 ng/mL), the “induction of reporter activity (luminescence) in response to aTC” value was 9,100 fold.

B4: P1TDP^A21: Synthetic aTC-inducible promoter (distal and proximal tetO2) + RBS A21 (nucleic acid)
DNA: TTTGCACCCGCTTTCCAAGAGAAGAAAGCCTTGTTAAATTGACTTAGTGTAAAAGCGCAGTACTGCTTGACCATAAGAACAAAAAAATCTCTATCACTGATAGGGATAAAGTTTGGAAGATAAAGCTAAAAGTTCTTATCTTTGCAGTCTCCCTATCAGTGATAGAGACGCATTTTAAAATAAAATAAATTATTTATGATATTAAACGAATCCATG
modifications: P1TDP-A21 Synthetic aTC-inducible promoter (distal and promixal tetO2)+RBS A21
Take B4: the “luminescence higher than the strongest native promoter tested” value in data set [1] (ON state, 18 native B. thetaiotaomicron promoters) was found to be 14 fold.

B5: P1TD: Synthetic aTC-inducible promoter (distal tetO2) + RBS GH023 (nucleic acid)
DNA: TTTGCACCCGCTTTCCAAGAGAAGAAAGCCTTGTTAAATTGACTTAGTGTAAAAGCGCAGTACTGCTTGACCATAAGAACAAAAAAATCTCTATCACTGATAGGGATAAAGTTTGGAAGATAAAGCTAAAAGTTCTTATCTTTGCAGTCCGAAATAAAGACATATAAAAGAAAAGACACCATG
modifications: P1TD Synthetic aTC-inducible promoter (distal tetO2)+RBS GH023
Take B5: in the data set with B. thetaiotaomicron, the “PMB resistance” value is “increases PMB resistance to wildtype levels”.
